Data as given in paper PMC3334620.

Columns and labels:
Conditions in all cases: 200 nM
[1] = target: T1, Ecm22 (Saccharomyces cerevisiae) (UniProt Q05958)
T1 sequence: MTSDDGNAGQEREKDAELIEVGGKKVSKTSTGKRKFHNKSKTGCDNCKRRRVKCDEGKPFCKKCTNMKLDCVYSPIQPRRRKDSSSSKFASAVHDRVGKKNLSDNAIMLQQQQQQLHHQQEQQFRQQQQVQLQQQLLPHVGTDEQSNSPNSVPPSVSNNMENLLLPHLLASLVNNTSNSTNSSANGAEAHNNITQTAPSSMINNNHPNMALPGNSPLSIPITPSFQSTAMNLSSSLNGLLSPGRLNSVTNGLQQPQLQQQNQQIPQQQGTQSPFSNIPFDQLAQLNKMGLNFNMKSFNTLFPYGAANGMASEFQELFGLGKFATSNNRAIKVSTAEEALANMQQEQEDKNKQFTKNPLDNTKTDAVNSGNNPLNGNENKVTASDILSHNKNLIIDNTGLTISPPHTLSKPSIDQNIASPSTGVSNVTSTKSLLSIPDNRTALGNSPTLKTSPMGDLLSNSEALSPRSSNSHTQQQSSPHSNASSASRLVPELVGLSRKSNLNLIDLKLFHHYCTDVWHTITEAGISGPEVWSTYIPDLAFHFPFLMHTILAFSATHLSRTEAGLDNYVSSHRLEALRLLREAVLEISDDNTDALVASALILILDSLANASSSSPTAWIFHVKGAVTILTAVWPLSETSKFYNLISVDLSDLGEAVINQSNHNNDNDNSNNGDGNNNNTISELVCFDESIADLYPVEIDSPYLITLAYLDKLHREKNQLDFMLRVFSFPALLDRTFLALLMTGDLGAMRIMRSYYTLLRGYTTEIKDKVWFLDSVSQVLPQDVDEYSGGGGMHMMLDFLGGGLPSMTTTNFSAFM

[2] = target: T2, Upc2 (Saccharomyces cerevisiae) (UniProt Q12151)
T2 sequence: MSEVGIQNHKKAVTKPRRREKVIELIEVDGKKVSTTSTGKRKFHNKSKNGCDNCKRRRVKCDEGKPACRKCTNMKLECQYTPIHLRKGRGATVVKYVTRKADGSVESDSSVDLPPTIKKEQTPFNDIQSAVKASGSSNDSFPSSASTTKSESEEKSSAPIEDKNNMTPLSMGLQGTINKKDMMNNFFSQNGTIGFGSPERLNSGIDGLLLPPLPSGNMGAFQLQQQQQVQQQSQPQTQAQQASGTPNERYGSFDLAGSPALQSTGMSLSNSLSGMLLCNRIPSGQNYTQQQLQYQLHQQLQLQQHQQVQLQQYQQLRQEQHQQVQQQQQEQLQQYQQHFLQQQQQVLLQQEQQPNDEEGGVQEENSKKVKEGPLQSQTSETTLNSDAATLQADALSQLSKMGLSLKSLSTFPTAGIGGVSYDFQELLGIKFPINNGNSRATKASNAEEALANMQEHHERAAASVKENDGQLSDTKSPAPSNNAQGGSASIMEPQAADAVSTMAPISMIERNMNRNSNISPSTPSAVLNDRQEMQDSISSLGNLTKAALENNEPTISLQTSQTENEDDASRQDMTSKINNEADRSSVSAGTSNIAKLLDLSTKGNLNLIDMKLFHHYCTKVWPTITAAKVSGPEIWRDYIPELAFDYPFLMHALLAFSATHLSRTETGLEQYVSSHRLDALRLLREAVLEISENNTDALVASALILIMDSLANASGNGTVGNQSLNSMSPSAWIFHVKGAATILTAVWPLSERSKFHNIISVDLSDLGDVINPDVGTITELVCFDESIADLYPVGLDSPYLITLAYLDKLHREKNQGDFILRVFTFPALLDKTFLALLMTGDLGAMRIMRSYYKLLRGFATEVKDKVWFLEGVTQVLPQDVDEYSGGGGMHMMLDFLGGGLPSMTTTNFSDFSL

[3] = target: T3, Sut1 (Saccharomyces cerevisiae) (UniProt P53032)
T3 sequence: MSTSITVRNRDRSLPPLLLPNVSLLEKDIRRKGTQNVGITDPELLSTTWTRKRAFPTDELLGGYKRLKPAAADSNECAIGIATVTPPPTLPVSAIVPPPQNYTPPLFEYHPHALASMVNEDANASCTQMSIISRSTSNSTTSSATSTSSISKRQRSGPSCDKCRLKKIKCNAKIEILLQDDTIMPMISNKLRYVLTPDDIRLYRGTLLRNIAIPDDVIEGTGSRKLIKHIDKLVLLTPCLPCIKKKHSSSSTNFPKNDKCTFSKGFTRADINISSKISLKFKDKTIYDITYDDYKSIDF

[4] = target: T4, Stp1 (Saccharomyces cerevisiae) (UniProt Q00947)
T4 sequence: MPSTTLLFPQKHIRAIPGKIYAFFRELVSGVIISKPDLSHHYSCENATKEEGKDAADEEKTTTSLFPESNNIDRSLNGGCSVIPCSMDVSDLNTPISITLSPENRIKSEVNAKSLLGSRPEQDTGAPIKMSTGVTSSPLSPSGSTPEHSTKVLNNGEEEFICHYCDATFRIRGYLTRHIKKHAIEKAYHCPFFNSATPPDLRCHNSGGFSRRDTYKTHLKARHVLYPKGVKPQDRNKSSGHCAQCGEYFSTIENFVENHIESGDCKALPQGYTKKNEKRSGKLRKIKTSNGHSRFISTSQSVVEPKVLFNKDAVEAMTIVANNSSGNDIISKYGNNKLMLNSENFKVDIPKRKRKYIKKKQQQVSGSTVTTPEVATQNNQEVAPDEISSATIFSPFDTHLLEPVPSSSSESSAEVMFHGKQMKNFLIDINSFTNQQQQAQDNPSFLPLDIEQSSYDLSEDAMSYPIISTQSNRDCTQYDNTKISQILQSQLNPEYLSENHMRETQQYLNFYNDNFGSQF

[5] = target: T5, Stb5 (Saccharomyces cerevisiae) (UniProt P38699)
T5 sequence: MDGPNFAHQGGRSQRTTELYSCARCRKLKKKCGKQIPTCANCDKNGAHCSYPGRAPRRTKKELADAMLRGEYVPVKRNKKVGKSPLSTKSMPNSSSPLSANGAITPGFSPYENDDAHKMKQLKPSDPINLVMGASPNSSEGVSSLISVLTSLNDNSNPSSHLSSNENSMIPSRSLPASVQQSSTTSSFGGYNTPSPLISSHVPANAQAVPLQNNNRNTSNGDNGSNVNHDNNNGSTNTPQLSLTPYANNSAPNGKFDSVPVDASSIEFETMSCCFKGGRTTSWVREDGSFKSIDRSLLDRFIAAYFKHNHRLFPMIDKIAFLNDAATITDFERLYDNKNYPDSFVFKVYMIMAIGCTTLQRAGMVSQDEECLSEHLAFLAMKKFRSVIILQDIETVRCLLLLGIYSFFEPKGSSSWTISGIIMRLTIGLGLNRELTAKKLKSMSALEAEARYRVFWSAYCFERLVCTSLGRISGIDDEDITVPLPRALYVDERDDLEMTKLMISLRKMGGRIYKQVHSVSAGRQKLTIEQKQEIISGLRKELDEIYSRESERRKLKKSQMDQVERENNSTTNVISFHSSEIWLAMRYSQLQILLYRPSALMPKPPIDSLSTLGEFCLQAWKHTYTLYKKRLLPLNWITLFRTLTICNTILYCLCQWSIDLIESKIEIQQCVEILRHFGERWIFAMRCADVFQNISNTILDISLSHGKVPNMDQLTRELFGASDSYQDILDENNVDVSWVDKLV

In the case of “CTATACGA (double strand) [8-mer CTATACGA]”, the binding signal (PBM E-score (-0.5 to 0.5)) [1] is reported as 0.496 and the binding signal (PBM E-score (-0.5 to 0.5)) [2] is reported as 0.498.

Sequence “ACTCCGAA (double strand) [8-mer ACTCCGAA]” has a binding signal (PBM E-score (-0.5 to 0.5)) [3] of 0.495.

“CTCGTTTA (double strand) [8-mer CTCGTTTA]” showed a binding signal (PBM E-score (-0.5 to 0.5)) [1] of 0.495 and a binding signal (PBM E-score (-0.5 to 0.5)) [2] of 0.495.

“CGTATACG (double strand) [8-mer CGTATACG]” showed a binding signal (PBM E-score (-0.5 to 0.5)) [2] of 0.494.

Work on “ATCGTTTA (double strand) [8-mer ATCGTTTA]” yielded a binding signal (PBM E-score (-0.5 to 0.5)) [2] of 0.495.

Sequence “CTAAACGA (double strand) [8-mer CTAAACGA]” has a binding signal (PBM E-score (-0.5 to 0.5)) [1] of 0.493 and a binding signal (PBM E-score (-0.5 to 0.5)) [2] of 0.496.

In the case of “AAGTCCGG (double strand) [8-mer AAGTCCGG]”, the binding signal (PBM E-score (-0.5 to 0.5)) [3] is reported as 0.497.

“CGGACTTC (double strand) [8-mer CGGACTTC]” was tested, and the binding signal (PBM E-score (-0.5 to 0.5)) [3] was 0.496.

With “ACGGCACT (double strand) [8-mer ACGGCACT]” the binding signal (PBM E-score (-0.5 to 0.5)) [4] was 0.489.

In the case of “CAAGTCCG (double strand) [8-mer CAAGTCCG]”, the binding signal (PBM E-score (-0.5 to 0.5)) [3] is reported as 0.492.

“TCGTTTAA (double strand) [8-mer TCGTTTAA]” was tested, and the binding signal (PBM E-score (-0.5 to 0.5)) [1] was 0.494 and the binding signal (PBM E-score (-0.5 to 0.5)) [2] was 0.497.

Sequence “AAACTCCG (double strand) [8-mer AAACTCCG]” has a binding signal (PBM E-score (-0.5 to 0.5)) [3] of 0.498.

Sequence “ATACGGCG (double strand) [8-mer ATACGGCG]” has a binding signal (PBM E-score (-0.5 to 0.5)) [4] of 0.49.

With “CTCGTATA (double strand) [8-mer CTCGTATA]” the binding signal (PBM E-score (-0.5 to 0.5)) [1] was 0.498 and the binding signal (PBM E-score (-0.5 to 0.5)) [2] was 0.499.

Work on “AACTCCGG (double strand) [8-mer AACTCCGG]” yielded a binding signal (PBM E-score (-0.5 to 0.5)) [3] of 0.499.

In the case of “TAAACGAA (double strand) [8-mer TAAACGAA]”, the binding signal (PBM E-score (-0.5 to 0.5)) [2] is reported as 0.494.

Sequence “AACTCCGA (double strand) [8-mer AACTCCGA]” has a binding signal (PBM E-score (-0.5 to 0.5)) [3] of 0.499.

For “TATACGAA (double strand) [8-mer TATACGAA]”, the binding signal (PBM E-score (-0.5 to 0.5)) [1] was 0.494 and the binding signal (PBM E-score (-0.5 to 0.5)) [2] was 0.495.

Sequence “CGGAGTTC (double strand) [8-mer CGGAGTTC]” has a binding signal (PBM E-score (-0.5 to 0.5)) [3] of 0.498.

Sequence “CGGAGTTA (double strand) [8-mer CGGAGTTA]” has a binding signal (PBM E-score (-0.5 to 0.5)) [5] of 0.487 and a binding signal (PBM E-score (-0.5 to 0.5)) [3] of 0.495.

Sequence “CGCCGTGC (double strand) [8-mer CGCCGTGC]” has a binding signal (PBM E-score (-0.5 to 0.5)) [4] of 0.493.

Work on “ATCGTATA (double strand) [8-mer ATCGTATA]” yielded a binding signal (PBM E-score (-0.5 to 0.5)) [2] of 0.493.

With “GTCGTTTA (double strand) [8-mer GTCGTTTA]” the binding signal (PBM E-score (-0.5 to 0.5)) [2] was 0.494.

Work on “GTGCCGTA (double strand) [8-mer GTGCCGTA]” yielded a binding signal (PBM E-score (-0.5 to 0.5)) [4] of 0.493.

Sequence “ACACGGCA (double strand) [8-mer ACACGGCA]” has a binding signal (PBM E-score (-0.5 to 0.5)) [4] of 0.49.

“CGCGGCGC (double strand) [8-mer CGCGGCGC]” showed a binding signal (PBM E-score (-0.5 to 0.5)) [4] of 0.492.

With “AAGTCCGA (double strand) [8-mer AAGTCCGA]” the binding signal (PBM E-score (-0.5 to 0.5)) [3] was 0.498.

Sequence “ACTCCGAG (double strand) [8-mer ACTCCGAG]” has a binding signal (PBM E-score (-0.5 to 0.5)) [3] of 0.494.

“TCGTATAA (double strand) [8-mer TCGTATAA]” was tested, and the binding signal (PBM E-score (-0.5 to 0.5)) [1] was 0.498 and the binding signal (PBM E-score (-0.5 to 0.5)) [2] was 0.497.

“AAAGTCCG (double strand) [8-mer AAAGTCCG]” gave a binding signal (PBM E-score (-0.5 to 0.5)) [3] of 0.496.

“GTATACGA (double strand) [8-mer GTATACGA]” was tested, and the binding signal (PBM E-score (-0.5 to 0.5)) [1] was 0.492 and the binding signal (PBM E-score (-0.5 to 0.5)) [2] was 0.495.

For “CGCACGGC (double strand) [8-mer CGCACGGC]”, the binding signal (PBM E-score (-0.5 to 0.5)) [4] was 0.488.

In the case of “ATAAACGA (double strand) [8-mer ATAAACGA]”, the binding signal (PBM E-score (-0.5 to 0.5)) [2] is reported as 0.494.

“CACGGCGC (double strand) [8-mer CACGGCGC]” showed a binding signal (PBM E-score (-0.5 to 0.5)) [4] of 0.493.

For “AACTCCGT (double strand) [8-mer AACTCCGT]”, the binding signal (PBM E-score (-0.5 to 0.5)) [3] was 0.496.

Work on “GTCGTATA (double strand) [8-mer GTCGTATA]” yielded a binding signal (PBM E-score (-0.5 to 0.5)) [1] of 0.497 and a binding signal (PBM E-score (-0.5 to 0.5)) [2] of 0.496.

“GCACGGCA (double strand) [8-mer GCACGGCA]” was tested, and the binding signal (PBM E-score (-0.5 to 0.5)) [4] was 0.49.

For “CAACTCCG (double strand) [8-mer CAACTCCG]”, the binding signal (PBM E-score (-0.5 to 0.5)) [3] was 0.497.
